Source: the RNAGym collection of RNA variant scans (doi:10.7554/elife.80360)

B1: HDV Ribozyme (parent)
chain: GGCCGGCAUGGUCCCAGCCUCCUCGCUGGCGCCGGCUGGGCAACAUUCCGAGGGGACCGUCCCCUCGGUAAUGGCGAAUGGGACCCA

Variants of: B1
Assay: self-cleavage, relative activity (ratio to wild type); higher = more cleavage; co-transcriptional

Row | Variant | self-cleavage
1 | U27G | 0.848
2 | C26U C30A | 0.816
3 | C26U C30U | 0.967
4 | U27G U37G | 0.391
5 | U27G U37A | 0.119
6 | U27C G68U | 0.642
7 | U27G C30U | 0.554
8 | U27G C30G | 0.277
9 | C26A U60A | 1.02
10 | G25U G50A | 0.151
11 | G25U G50C | 0.136
12 | C26U G29U | 0.136
13 | C26U C85A | 0.96
14 | C26U A45C | 0.776
15 | U27G U60G | 0.978
16 | C26U G76C | 0.87
17 | U27C A42G | 0
18 | U27A A43U | 0.401
19 | U27A A43C | 0.0723
20 | G25U U79C | 0.115
21 | U27C G31A | 0.251
22 | U27C G31U | 0.161
23 | G25U C41G | 0.119
24 | U27A G81A | 0.914

Row | Variant | self-cleavage
25 | C26U U46C | 0.897
26 | C26A A56U | 1.12
27 | C26U G38A | 0.0573
28 | C26U G38C | 0.155
29 | C26A C66U | 0.857
30 | C26A C66A | 0.909
31 | C26U U47G | 0.877
32 | C26A U65G | 0.646
33 | G25U G35C | 0.0707
34 | U27G C75G | 0.119
35 | G28A A43C | 0.108
36 | G28A C84A | 0.151
37 | U27C U69A | 0.317
38 | C26G C64G | 0.787
39 | G28A C86U | 0.0369
40 | U27G A56G | 1.06
41 | C26A C63G | 0.853
42 | C26U C64U | 0.819
43 | U27C C32U | 0.115
44 | U27C C32G | 0.217
45 | U27A G31U | 0.244
46 | U27C G74A | 0.193
47 | U27C C64G | 0.652
48 | G28A C62U | 0.134

Row | Variant | self-cleavage
49 | U27C A51U | 0.804
50 | U27G G73C | 0.0978
51 | U27A C58G | 0.831
52 | G28A C85U | 0.106
53 | U27G A45G | 0.712
54 | G28A C66G | 0.138
55 | U27C G73C | 0.332
56 | C26U A42U | 0.682
57 | C26A G81A | 0.712
58 | G25U G80U | 0.115
59 | C26U G35A | 0.876
60 | C26G C33G | 0.285
61 | U27A G34C | 0.0978
62 | C26U G28A | 0.234
63 | G28A C33U | 0.0234
64 | G28A C33G | 0.149
65 | G25U G31A | 0.157
66 | G28A G39U | 0.0692
67 | U27G C66G | 0.629
68 | C26A U79G | 0.875
69 | U27C U37G | 0.0923
70 | U27C U37C | 0.856
71 | U27A G67U | 0.799
72 | C26G A70C | 0.957

Row | Variant | self-cleavage
73 | G25U U60A | 0.237
74 | G25U U60C | 0.0475
75 | U27G U46G | 0.462
76 | G28A C49G | 0
77 | U27C C36A | 0.142
78 | U27G C33G | 0.104
79 | C26G G35C | 0.131
80 | U27G G52U | 0.872
81 | U27G G52A | 1.02
82 | C26U G80A | 0.897
83 | G28A C41G | 0.151
84 | U27A A77G | 1.15
85 | C26U C57G | 0.932
86 | C26U C57A | 1.22
87 | G25U A78U | 0.0831
88 | G25U A78G | 0.185
89 | G25U A78C | 0.0665
90 | C26A C30U | 0.68
91 | C26U C44G | 0.831
92 | U27C G52C | 0.764
93 | U27A G54C | 0.707
94 | U27A C44U | 0.482
95 | U27G C41G | 0.802
96 | U27G C41A | 0.969

Row | Variant | self-cleavage
97 | G25U U69G | 0.244
98 | C26A G34A | 0.486
99 | U27G C58U | 0.906
100 | C26G A77C | 0.383
101 | U27G G67C | 0.653
102 | C26G C84A | 1.09
103 | G25U U47G | 0.0692
104 | U27C G40A | 0.657
105 | U27C G40C | 0.415
106 | C26G G67U | 0.665
107 | C26U A70G | 0.831
108 | C26G C48A | 0.973
109 | U27C A77G | 0.798
110 | C26U A51C | 0.872
111 | C26U A51U | 0.901
112 | C26U A77U | 0.641
113 | C26U A77G | 0.872
114 | C26A C49G | 0.867
115 | C26G G53C | 0.73
116 | G25U A45U | 0.172
117 | C26G C86A | 0.847
118 | U27G C61G | 0.86
119 | U27G C61A | 0.759
120 | U27A C36G | 0.298

Row | Variant | self-cleavage
121 | U27A G55C | 0.864
122 | C26A A42U | 0.525
123 | C26A A43G | 0.731
124 | C26A A43C | 0.665
125 | G25U A87C | 0.0755
126 | G25U A87U | 0.109
127 | U27A C62U | 0.935
128 | C26U C75U | 0.113
129 | C26U C75G | 0.287
130 | C26U U27G | 0.923
131 | C26U U27C | 1.29
132 | U27G U69A | 0.959
133 | G25U C75U | 0.162
134 | G28A C44A | 0.104
135 | G28A C44G | 0
136 | U27C U72A | 0.396
137 | U27C U72G | 0.612
138 | C26A U46C | 0.745
139 | U27C A45U | 0.532
140 | U27G G81U | 0.643
141 | C26G G82A | 0.813
142 | C26A G38U | 0.208
143 | C26A G29A | 0.13
144 | C26A G29U | 0.032

Row | Variant | self-cleavage
145 | C26U C41G | 1.02
146 | U27C A87G | 0.497
147 | U27A C85A | 0.957
148 | U27A C85U | 0.684
149 | G25U G29U | 0.12
150 | U27G G55A | 0.806
151 | G25U C36U | 0.218
152 | U27C G35A | 0.389
153 | C26G G55A | 0.884
154 | C26A U69A | 0.985
155 | U27A A45C | 0.256
156 | U27A A71U | 0.906
157 | U27G A70U | 0.519
158 | G25U G54C | 0.122
159 | U27C C49U | 0.617
160 | C26G U69A | 0.886
161 | C26G U69C | 1.26
162 | G25U A83C | 0.0386
163 | U27G A51U | 0.677
164 | G28A C30U | 0.113
165 | G28A C30A | 0.149
166 | G28A A45C | 0.0744
167 | C26A G39U | 0.935
